Results taken from paper PMC2648964, “Molecular Basis for the Sorting of the SNARE VAMP7 into Endocytic Clathrin-Coated Vesicles by the ArfGAP Hrb” (Cell, 2008).

T1: Hrb(1-176) His6 (human, UniProt P52594-1 1-176)
T1 construct: human Hrb, residues 1-176; also called residues 1–176 of Hrb; source: E. coli BL21(DE3)/pLysS, purified (Ni-NTA-agarose); not shown: His6, C-terminal, kept
T1 sequence (looked up): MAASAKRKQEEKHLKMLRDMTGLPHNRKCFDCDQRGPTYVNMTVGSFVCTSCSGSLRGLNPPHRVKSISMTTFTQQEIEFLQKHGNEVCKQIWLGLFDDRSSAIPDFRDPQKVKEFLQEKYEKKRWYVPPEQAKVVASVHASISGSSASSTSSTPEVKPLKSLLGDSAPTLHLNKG

T2: Hrb(1-176) His6 L163P/L164P (human, UniProt P52594-1 1-176, L163P | L164P)
T2 construct: human Hrb, residues 1-176, with L163P and L164P; source: E. coli BL21(DE3)/pLysS, purified (Ni-NTA-agarose); not shown: His6, C-terminal, kept
T2 sequence (looked up): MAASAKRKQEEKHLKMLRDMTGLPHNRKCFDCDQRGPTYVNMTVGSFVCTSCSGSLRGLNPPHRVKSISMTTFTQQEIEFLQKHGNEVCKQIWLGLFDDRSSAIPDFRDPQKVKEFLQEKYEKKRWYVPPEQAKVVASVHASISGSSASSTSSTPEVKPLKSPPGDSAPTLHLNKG

T3: Hrb(1-176) His6 L171S/L173S (human, UniProt P52594-1 1-176, L171S | L173S)
T3 construct: human Hrb, residues 1-176, with L171S and L173S; source: E. coli BL21(DE3)/pLysS, purified (Ni-NTA-agarose); not shown: His6, C-terminal, kept
T3 sequence (looked up): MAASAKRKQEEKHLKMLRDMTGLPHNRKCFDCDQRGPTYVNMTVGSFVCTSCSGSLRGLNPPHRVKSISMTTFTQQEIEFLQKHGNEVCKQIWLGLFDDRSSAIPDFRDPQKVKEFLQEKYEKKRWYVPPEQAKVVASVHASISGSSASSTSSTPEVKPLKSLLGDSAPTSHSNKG

T4: Hrb(1-176) His6 L160S/L163S (human, UniProt P52594-1 1-176, L160S | L163S)
T4 construct: human Hrb, residues 1-176, with L160S and L163S; source: E. coli BL21(DE3)/pLysS, purified (Ni-NTA-agarose); not shown: His6, C-terminal, kept
T4 sequence (looked up): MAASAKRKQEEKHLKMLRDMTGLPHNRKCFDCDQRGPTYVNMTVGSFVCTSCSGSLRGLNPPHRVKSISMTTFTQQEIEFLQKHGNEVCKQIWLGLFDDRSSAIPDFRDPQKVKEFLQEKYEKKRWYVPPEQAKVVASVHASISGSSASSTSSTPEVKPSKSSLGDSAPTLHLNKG


Columns and labels:
Test in all cases: ITC; VAMP7 longin domain (1.4 ml, 0.15-0.2 mM) in the cell, Hrb at 1.5-2 mM titrated in 30-40 injections of 4-8 μl; all GST tags removed
Conditions in all cases: both partners purified
Hrb(1-176) His6 = target: T1, Hrb(1-176) His6
[1] = target: T2, Hrb(1-176) His6 L163P/L164P
[2] = target: T3, Hrb(1-176) His6 L171S/L173S
[3] = target: T4, Hrb(1-176) His6 L160S/L163S

Binder	Kd (Hrb(1-176) His6) [µM]	Kd [1] [µM]	Kd [2] [µM]	Kd [3] [µM]
VAMP7 longin domain L43S/Y45S, GST tag removed (domain or fragment, mouse, UniProt P70280 1-120, looked up, VAMP7 longin domain with L43S and Y45S; limits as the parent GST-VAMP7 longin domain (mouse 1-120 by the antibody paragraph); Used in ITC; source: E. coli BL21(DE3)/pLysS, purified, GST removed with thrombin; not shown: GST, N-terminal, cleaved) MAILFAVVARGTTILAKHAWCGGNFLEVTEQILAKIPSENNKSTSSHGNYLFHYICQDRIVYLCITDDDFERSRAFSFLNEVKKRFQTTYGSRAQTALPYAMNSEFSSVLAAQLKHHSEN	> 300			
VAMP7 longin domain, GST tag removed (domain or fragment, mouse, UniProt P70280 1-120, looked up, VAMP7 longin domain; GST-VAMP7 longin domain is described as mouse VAMP7 amino acids 1-120 in the antibody paragraph; also called VAMP7 LD; source: E. coli BL21(DE3)/pLysS, purified, GST removed with thrombin; not shown: GST, N-terminal, cleaved) MAILFAVVARGTTILAKHAWCGGNFLEVTEQILAKIPSENNKLTYSHGNYLFHYICQDRIVYLCITDDDFERSRAFSFLNEVKKRFQTTYGSRAQTALPYAMNSEFSSVLAAQLKHHSEN	10.5	> 300	> 300	> 300
